Measured values published in the DeepSol protein solubility set.

Assay: soluble on expression in E. coli; label from the status in PepcDB or PDB records

Row | Sequence | soluble on expression in E. coli
1 | MENSDVINFSCLEKELHSALQADRKYQRENDAKFRALNQKVASYEEFRDIVLASHLKPLDRNDISGSPRKQPWNPVACRTNYVCASSEQVQPQLSEVQPRSASEFIRDWRRFAGCSFEKYSLLVSLGGEALQKIFSTEIGLGLLGEFLLILSQCLKSGDEDRVTGVLDGLSKTGRFSINLSLLSQAEQEACEELFNKLKVAAGECHPYKDNSNTSVVCEAGLTHMEDNKTDITTTLKELAGKYGTEK | not soluble
2 | MSSAPLPPKPIERGYASAGLLARILVSKYMEHIPLYRQSEIYARQGVELSRNTMVRWVSEMADKLRPLYIALNDYVLEAGKVHADDTPVKVLAPGNGKTKTGRLWVYVRDDRNAGSSLPAAVWFAYSADRKGEHPQLHLAKYQGVLQADAYAGYNVLYETGRVKEAGCLAHARRKIHDEDVRRPTEMTQEALRRIAELYDIEAEIRGSPAEERLAVRKARSVQLMQSLYDWIQLQRKTLSKHAEMAKAFDYILNHWNALNEFCRDGRVEIDNNIGENALRSVAVGRKNYLFFGSDKGGESAAIIYSLLVTCKQNEVEPEDWLREVIEKLNDWPSNQVHELLPWNFSSVK | not soluble
3 | MSLKILFVAAEGAPFSKTGGLGDVIGALPKSLVKAGHEVAVILPYYDMVEAKFGNQIEDVLHFEVSVGWRRQYCGIKKTVLNGVTFYFIDNQYYFFRGHVYGDFDDGERFAFFQLAAIEAMERIDFIPDLLHVHDYHTAMIPFLLKEKYRWIQAYEDIETVLTIHNLEFQGQFSEGMLGDLFGVGFERYADGTLRWNNCLNWMKAGILYANRVSTVSPSYAHEIMTSQFGCNLDHILKMESGKVSGIVNGIDADLYNPQTDALLDYHFNQEDLSGKAKNKAKLQERVGLPVRADVPLVGIVSRLTRQKGFDVVVESLHHILQEDVQIVLLGTGDPAFEGAFSWFAQIYPDKLSTNITFDVKLAQEIYAACDLFLMPSRFEPCGLSQMMAMRYGTLPLVHEVGGLRDTVRAFNPIEGSGTGFSFDNLSPYWLNWTFQTALDLYRNHPDIWRNLQKQAMESDFSWDTACKSYLDLYHSLVNEGHHHHHH | soluble
4 | MGSDKIHHHHHHMTGHYSKTEHQYILLTSESASFDHYSVYRDPQLPQIFSHNFVQLHDTFPLERLLNFLPSVPKLLDANYLHLKASPQHVFPLGLKQSLVKSGFVVEDELLYDMKLSDWKGQMGHPLTAWGTAKSLSDGSSIMKIYDSIYIGEAIAEQKLKRKYPFYEADIIILVVCYSDQAQKVPIGCGELFIDHQEKTAKIEEVAILDQFQRKGYGSILVKEMLSIAKSLGMEAAYLVAASTDGATQFYEKLTFKKYERVHTVFHYFLT | not soluble
5 | MSLKIRSITATPINLRLEAPYGWVFGELDGFSQTIVEVETEDGLIGLGEAPTPAAAAIINDVLAERLVGRDAFDIAGAEHVCLPYWTGVQSINDRTRIMAFGAIEMALWDLRGKAWNQPLYQLLGGAVRKDIPFTDYFSLRGDGPKVKGETTPEEVADYCVELHETHGTTFFEGKFSTEDPKVSLRMVELIRAKLGDEAMIRIDSNQAYSLATARRLARPLEELGVRNWEDPVATIEEMRQLRQHCSIPFSTHNIDIARAMDLKVPDAFVGNPTAHGGIGRLLRFVGACEHAGVDFWCYSGDSGIGSAAYLHLCAALGWIREPNQSLFRMQPMDITEEGPFSPRNNVVRVPEGPGLGVTLSRKNLAACHRDFAENGPCNKYHDPAKPGTYRRLPLNEGHHHHHH | soluble
6 | SVISESMDILFRIRGGLDLAFQLATPNEIFLKKALKHVLSDLSTKLSSNALVFRICHSSVYIWPSSDINTIPGELTDASACKTILRFIQFEPEEDIKRKFMRKKDKKLSDMHQIVNIDLMLEMSTSLAAVTPIIERESGGHHYVNMTLPVDAVISVAPEETWGKVRKLLVDAIHNQLTDMEKCILKYMKGTSIVVPEPLHFLLPGKKNLVTISYPSGIPDGQLQAYRKELHDLFNLPHDRPYFKRSNAYHFPDEPYKDGYIRNPHTYLNPPNMETGMIYVVQGIYGYHHYMQDRIDDNGWGCAYRSLQTICSWFKHQGYTERSIPTHREIQQALVDAGDKPATFVGSRQWIGSIEVQLVLNQLIGITSKILFVSQGSEIASQGRELANHFQSEGTPVMIGGGVLAHTILGVAWNEITGQIKFLILDPHYTGAEDLQVILEKGWCGWKGPDFWNKDAYYNLCLPQRPNMI | not soluble
7 | MAKLFAYQIGQNPRIQTDLLVDPQLFEDEHGCMGAVGFGLADCVQTGMFTDIEVIKRYLHEATYVFINGDFDRLSYLEIGIALSLGKTLYVITMNPNVTKEDLGIPFDNATIEFLSPSAFTERIHETEAAEN | not soluble
8 | MDTISDVQIHWRKKDYLSMSLLDDFGIAETTVKEHSVNDQIIVTLSADHRVRMIIRYEMDESHIPMIKNLVIRAFFIGSQ | soluble
9 | MAHHHHHHMDPLLLGTSAGLERNCTVLFSHLTALCGTKPAGEPHNPLQVHLRVDDGHRDTALQHIKVLYDVAVRHNPRTSVTVVPLAPLEYYETPNRNTNSREGHKLPLFTASLMTPNCGFNPVYKGVAVGGTFDRLHGGHKLLLTTALLHATQVLRIGVTVSTMLTTKIHADLIEPFEVRCAAVTKFAHLLRPDLGLEVAGIADRAGGADSDPSLEALVVSPETVGALPSINTARLSVGLKPLECVLVPYVGVCDDEESRVSSTNIRKRLCELST | soluble
10 | MGSDKIHHHHHHLRVKKKWFIPIGILALSSWFLYRENNQIDTTAVTVQSDKLPAAFNDYKILQIADLHGKSFGSRQKVLLKKVNKLQPDVILMTGDLIDSRRNGEEEALLLMKQLTPDYPVYFVTGNHEVRLNLTILPKLEQLGVTVLRNTSVSLEQNGQFIELLGIDDPTTTRWSEGLQEPDGIRQSLDQAQSTAETRSFQLLMAHRPEYLPLYAERKVDLVLSGHAHGGQIRLPFTDGMYAPGQGFFPDLTAGQHTMENTRLIISRGLGNSLFPFRIFNHPELIVVTLRT | not soluble
11 | LGSLLEVAIPKPGNVSRYKDFEDLTFYHFLFGNTALIGPYFEATERGILLKEGKINESEVGIGELIRMAVAATKKYQDANPNFGIIVLSIPLIVSLSSGASIEDAGKMATRLISKSTPLDTVELYKAIRIANPKGIPRGVKYDVYSDTSFEDLVRDGINLYKLAEISCERELVFCEWLNNYDLTYETLKLLENNLEKEDLEGKVRKTFVVLLSKYEDTLIIRKAGIQEAKKVKEMATQLLKNKITEEEFERFMYEKRDLRNPGSLADIMATAL | not soluble
12 | MSHPVVSKEEWLAARRDLLVKEKELTRARDRLNEARRALPWEEVTKDYIFDAPSGPRSLQELFGDCSQLIVYHFMLAPDWEEGCVGCSFFADHVDGALVHLRHGDAGFVAVSRAPLEKIEGYKNRMGWKFPWVSAEGSDFNYDYQASFRDEDVEKGEITYNYRDMAPFGDLKDLHGISVFAKGEDGKIYHTYSTYARGAEQTLGTLMLLDLVPKGRNEDEVMDWVRRHDQYEDAPKAASCCH | not soluble
13 | MSEAEARPTNFIRQIIDEDLASGKHTTVHTRFPPEPNGYLHIGHAKSICLNFGIAQDYKGQCNLRFDDTNPVKEDIEYVESIKNDVEWLGFHWSGNVRYSSDYFDQLHAYAIELINKGLAYVDELTPEQIREYRGTLTQPGKNSPYRDRSVEENLALFEKMRAGGFEEGKACLRAKIDMASPFIVMRDPVLYRIKFAEHHQTGNKWCIYPMYDFTHCISDALEGITHSLRTLEFQDNRRLYDWVLDNITIPVHPRQYEFSRLNLEYTVMSKRKLNLLVTDKHVEGWDDPRMPTISGLRRRGYTAASIREFCKRIGVTKQDNTIEMASLESCIREDLNENAPRAMAVIDPVKLVIENYQGEGEMVTMPNHPNKPEMGSRQVPFSGEIWIDRADFREEANKQYKRLVLGKEVRLRNAYVIKAERVEKDAEGNITTIFCTYDADTLSKDPADGRKVKGVIHWVSAAHALPVEIRLYDRLFSVPNPGAADDFLSVINPESLVIKQGFAEPSLKDAVAGKAFQFEREGYFCLDSRHSTAEKPVFNRTVGLRDTLEHHHHHH | soluble
14 | QMAGIYQALANDGQRIEPRIIEKVVDSSGNEVEQQPPAETRVVSAQTARTVVDMFRGVVQKDPTGINSGTGAGAAVDGYQVSGKTGTAQQVDPNTGAYSNSNYWITFAGIAPADNPRFVVALMLDKPHRGVHGEGGQSAAPLFHDIASWILDRDNVPLSPPMEGQLVLQAQ | not soluble
15 | MAMGQLQHGIDDENATKQTQKYRDAEQSKKTAYDQAVAAAKAILNKQTGSNSDKAAVDRALQQVTSTKDALNGDAKLAEAKAAARQNLGTLNHITNAQRTALEGQINQATTVDGVNTVKTNANTLDGAMNSLQGAINDKDATLRNQNYLDADESKRNAYTQAVTAAEGILNKQTGGNTSKADVDNALNAVTRAKAALNGAENLRNAKTSATNTINGLPNLTQLQKDNLKHQVEQAQNVVGVNGVKDKGNLEHHHHHH | soluble
16 | MSLAADKVVVMLNWYVYGEHAPFYYGKAKGIYAAEGIDLEIQEGRGSAATTQAVAAKTADFGYVDVPTMMRAAIKGAPVVATGVLLQTSPMSAMGFVDKNIRKPEDIKGKTVAITPADSMTQIWPLFLKKTGLKESDFQTVAGDGQTKLNAVINGQADLLLGYVMDQSMKIKDATGKDVYPIKFADYGINMVSSGIIANSDYVKANADLVRRFMSATTKAVEAAEKEPKAAAQSILDANPKGGKIDTLTQGFELTIPLYRTAATKSKRPFQVTEQNMTETVNLLVEYGGLDAKAKDNPKAFYTNDYLPKSGEGHHHHHH | soluble
17 | MFLNTNEILDYSALKYMPNLKSLTVANAKIKDPSFFANLKQLNHLALRGNEFSDVTPLVKMDHLDSLDLSNNKITNVAPLIEMKNVKSLYLSGNQIEDVTALAKMEQLDYLNLANNKITNVAPLSALKNVTYLTLAGNQIEDIKPLYSLPLTDLVLTRNKVKDLSGIEQMKQLEELWIGKNEIKDVTPLSKMTQLKQLHLPNNELKDITPLSSLVNLQKLDLEANYISDLTPASNLKKLVFLSFVANEIRDVRPVIELSKTAYINVQNQKVFLEETEVNKEVKVPIYEKDGKISTKIRLKGEGGTYSNDAVKWSTPGEKVYEFGVKDPFADTGIFFTGSVIQNVVESKADNTSKEDNTSKEDAKVEVVEFKDVPKGHWSEEAIHYLAKENIFKGYGNGQFGFGDSITRGQVASLVQRYLKLENKVEQKERFTDTKGHMFEQDIATVAQAGIMQGDGTGEFRPDGVLTRYEMSVVLYKVFQLKEDGNNKVNFKDVPTGHWAEGYVKALVDNNISKGDGKERFLGDDFVTREQYAQFLYNAITK | not soluble
18 | MGSDKIHHHHHHMRIAILSQGPELYSTKRLVEAATLRGHEVKVINPLECYMNINMRQSSIHIGGEELPPFDAVIPRIGASITFYGSAVLRQFEMMGVYALNDSVGISRSRDKLRSMQLMSRRGIGLPITGFANKPSDIPDLIDMVGGAPLVIKLLEGTQGIGVVLAETRKAAESVIEAFMGLKANIMVQEYIKEANGADIRCFVLGDKVVAAMKRQAMPGEFRSNLHRGGTASLVKLTPEERSVAIRAAKTMGLNVAGVDLLRSNHGPLVMEVNSSPGLEGIEGATAKDVAGAIIEFVEKNALKTKKPTQA | not soluble
